In the Human Domainome abundance scans (Beltran et al. 2025):
± gives the uncertainty stated by the source.

B1: Zinc finger MYM-type protein 6, residues 427 to 504; numbered along this chain, O95789 (parent)
chain: KLKCQHCNHLFATKPELLFYKGKMFLFCGKNCSDEYKKKNKVVAMCDYCKLQKIIKETVRFSGVDKPFCSEVCKFLSA

Variants of: B1
Test: abundance fitness (aPCA) (normalised: wild type 0, dead -1); higher = more abundant; growth selection in yeast, the domain comes from the species named
Details: Homo sapiens

Variant | abundance fitness
KLKCQHCNHLFATKPELLFYKGKMELFCGKNCSDEYKKKNKVVAMCDYCKLQKIIKETVRFSGVDKPFCSEVCKFLSA [F25E] | -0.049 ± 0.035
KLKCQHCNHLFATKPELLFYKGKMILFCGKNCSDEYKKKNKVVAMCDYCKLQKIIKETVRFSGVDKPFCSEVCKFLSA [F25I] | -0.126 ± 0.43
KLKCQHCNHLFATKPELLFYKGKMFLFCGKNCSDEYKKKNKVVAMCDYCKLQKIIKETVEFSGVDKPFCSEVCKFLSA [R60E] | 0.008 ± 0.24
KLKCQHCNHLFATKPELLFYKGKMFLFCGKNCSDEYKKKNKVVAMCDYCKLQKIIKETVRFSGVDKPDCSEVCKFLSA [F68D] | -0.35 ± 0.17
KLKCQHCNHLFATKPELLFYKGKMFLFCGKNCSDEYKKKNKVVAMCIYCKLQKIIKETVRFSGVDKPFCSEVCKFLSA [D47I] | -0.306 ± 0.46
KLKCQHCNHLFATKPELLFYKGKMFLFCGKNCSDEYKKKNKVVQMCDYCKLQKIIKETVRFSGVDKPFCSEVCKFLSA [A44Q] | 0.054 ± 0.21
KLKCQHCNHLFATKPELLFYKGKMFLFCGKNCSDEYKKKNKVVRMCDYCKLQKIIKETVRFSGVDKPFCSEVCKFLSA [A44R] | -0.495 ± 0.1
KLKCQHCNHLFATKPELLFYKGKMFLFCGKNCSDEYKKKNKVVGMCDYCKLQKIIKETVRFSGVDKPFCSEVCKFLSA [A44G] | -0.132 ± 0.076
KLKCQHCNHLFATKPELLFRKGKMFLFCGKNCSDEYKKKNKVVAMCDYCKLQKIIKETVRFSGVDKPFCSEVCKFLSA [Y20R] | -0.121 ± 0.03
KLKCQHCNHLFATKPELLTYKGKMFLFCGKNCSDEYKKKNKVVAMCDYCKLQKIIKETVRFSGVDKPFCSEVCKFLSA [F19T] | -0.03 ± 0.037
KLKCQHCNHLFATKPELLFYKGKMFLFCGKNCSDEYKKKNKVVAMCDYCKLQKIIKETVRFSGVDKPFCSEVCKFWSA [L76W] | -0.174 ± 0.11
KLKCQHCNHLFATKAELLFYKGKMFLFCGKNCSDEYKKKNKVVAMCDYCKLQKIIKETVRFSGVDKPFCSEVCKFLSA [P15A] | -0.075 ± 0.03
KLKCQHCNHLFATKPPLLFYKGKMFLFCGKNCSDEYKKKNKVVAMCDYCKLQKIIKETVRFSGVDKPFCSEVCKFLSA [E16P] | -0.414 ± 0.045
KLKCQHCNHLFATKPNLLFYKGKMFLFCGKNCSDEYKKKNKVVAMCDYCKLQKIIKETVRFSGVDKPFCSEVCKFLSA [E16N] | -0.26 ± 0.094
KLKCQHWNHLFATKPELLFYKGKMFLFCGKNCSDEYKKKNKVVAMCDYCKLQKIIKETVRFSGVDKPFCSEVCKFLSA [C7W] | -0.919 ± 0.074
KLKCQHCNHLFATKPELLFYKGKMFLFCVKNCSDEYKKKNKVVAMCDYCKLQKIIKETVRFSGVDKPFCSEVCKFLSA [G29V] | -0.204 ± 0.034
KLKCQHCNHLFATKPELLFYKGKMFLFCCKNCSDEYKKKNKVVAMCDYCKLQKIIKETVRFSGVDKPFCSEVCKFLSA [G29C] | -0.096 ± 0.052
KLKCQHCNHLFATKPELLFYKGKMFLFCMKNCSDEYKKKNKVVAMCDYCKLQKIIKETVRFSGVDKPFCSEVCKFLSA [G29M] | -0.084 ± 0.089
KLKCQHCNHLFATKPELLFYKGKMFLFCGKNCSDEYKKKNKVVAMCDYCKLQKAIKETVRFSGVDKPFCSEVCKFLSA [I54A] | 0.557 ± 0.068
KLKCQHCHHLFATKPELLFYKGKMFLFCGKNCSDEYKKKNKVVAMCDYCKLQKIIKETVRFSGVDKPFCSEVCKFLSA [N8H] | -0.117 ± 0.064
KLKCQHCCHLFATKPELLFYKGKMFLFCGKNCSDEYKKKNKVVAMCDYCKLQKIIKETVRFSGVDKPFCSEVCKFLSA [N8C] | -0.015 ± 0.038
KLKWQHCNHLFATKPELLFYKGKMFLFCGKNCSDEYKKKNKVVAMCDYCKLQKIIKETVRFSGVDKPFCSEVCKFLSA [C4W] | -1.11 ± 0.08
KLKAQHCNHLFATKPELLFYKGKMFLFCGKNCSDEYKKKNKVVAMCDYCKLQKIIKETVRFSGVDKPFCSEVCKFLSA [C4A] | -0.74 ± 0.04
KLQCQHCNHLFATKPELLFYKGKMFLFCGKNCSDEYKKKNKVVAMCDYCKLQKIIKETVRFSGVDKPFCSEVCKFLSA [K3Q] | -0.032 ± 0.038

Variant | abundance fitness
KLTCQHCNHLFATKPELLFYKGKMFLFCGKNCSDEYKKKNKVVAMCDYCKLQKIIKETVRFSGVDKPFCSEVCKFLSA [K3T] | -0.102 ± 0.046
KLKCQHCNHWFATKPELLFYKGKMFLFCGKNCSDEYKKKNKVVAMCDYCKLQKIIKETVRFSGVDKPFCSEVCKFLSA [L10W] | 0.004 ± 0.033
KLKCQHCNHLFATKPELLFYKGKMFLFCGKNCSDEYKKKNKVVAMCDYCKLQKIIKETVRFSGVDKPFCQEVCKFLSA [S70Q] | -0.578 ± 0.17
KLKCQHCNHLFATKPELLFYKGKMFLFCGKNCSDEYKKKNKVVAMCDYCKLQKIIKETVRFSGQDKPFCSEVCKFLSA [V64Q] | -0.009 ± 0.11
KLKCQHCNHLFATKPELLFYKGKMFLFCGKNCSDEYKKKNKVVAMCDYCKLQKIIKETVRFSGGDKPFCSEVCKFLSA [V64G] | 0.046 ± 0.063
KLKCQHCNHLFATKPEYLFYKGKMFLFCGKNCSDEYKKKNKVVAMCDYCKLQKIIKETVRFSGVDKPFCSEVCKFLSA [L17Y] | -0.081 ± 0.072
KLKCQHCNHLFATKPELLFYKGKMFLFCGKNCSDEYKKKNKVVAMCDYCKLQKIIKEEVRFSGVDKPFCSEVCKFLSA [T58E] | -0.277 ± 0.14
KLKCQHCNHLFATKPELLFYKGKMFLFCGKNCSDEYKKKNKVVAMCDYCKLQKIIKEHVRFSGVDKPFCSEVCKFLSA [T58H] | 0.511 ± 0.41
KLKCPHCNHLFATKPELLFYKGKMFLFCGKNCSDEYKKKNKVVAMCDYCKLQKIIKETVRFSGVDKPFCSEVCKFLSA [Q5P] | -0.204 ± 0.061
KLKCQHCNHLFATKPELLFYKGKMFLFCGKNCSDEYKKKNKVVAMCDYCKLQKIIKETVRFSGVDKPFCSEVVKFLSA [C73V] | -0.728 ± 0.26
KLKCQHCNHLDATKPELLFYKGKMFLFCGKNCSDEYKKKNKVVAMCDYCKLQKIIKETVRFSGVDKPFCSEVCKFLSA [F11D] | -0.339 ± 0.057
KLKCQHCNHLFATKPELLFYKGKMFLFCGKNCSDEYPKKNKVVAMCDYCKLQKIIKETVRFSGVDKPFCSEVCKFLSA [K37P] | -0.114 ± 0.036
KLKCQHCNHLFATKPELLFYKGKMFLFCGKNCSDEYKKKTKVVAMCDYCKLQKIIKETVRFSGVDKPFCSEVCKFLSA [N40T] | -0.014 ± 0.18
KLKCQHCNHLFATKPELLFYKGKMFLFCGKNCSDEYKKKRKVVAMCDYCKLQKIIKETVRFSGVDKPFCSEVCKFLSA [N40R] | -0.045 ± 0.06
KLKCQHCNHLFATKPELLFYKGKMFLFCGKNCSDEYKKKNKVWAMCDYCKLQKIIKETVRFSGVDKPFCSEVCKFLSA [V43W] | -0.416 ± 0.27
KLKCQHCNHLFATKPELLFYKGKMFLFCGKACSDEYKKKNKVVAMCDYCKLQKIIKETVRFSGVDKPFCSEVCKFLSA [N31A] | -0.078 ± 0.03
KLKCQHCNHLFATKPELLFYKGKMFLFCGKNCSDEYKKKNKVVAMCDYCKLQKIIKETVRKSGVDKPFCSEVCKFLSA [F61K] | -0.027 ± 0.18
KLKCQHCNHLFATKPELLFYKGKMFLFCGKNCSDEYKKKNKVVAMCDYCKLQKIIKTTVRFSGVDKPFCSEVCKFLSA [E57T] | 0.026 ± 0.13
LLKCQHCNHLFATKPELLFYKGKMFLFCGKNCSDEYKKKNKVVAMCDYCKLQKIIKETVRFSGVDKPFCSEVCKFLSA [K1L] | -0.271 ± 0.047
DLKCQHCNHLFATKPELLFYKGKMFLFCGKNCSDEYKKKNKVVAMCDYCKLQKIIKETVRFSGVDKPFCSEVCKFLSA [K1D] | -0.008 ± 0.055
KLKCQHCNHLFATKPELLFYKGKMFLFCGKNCSDEYKKKNKVVAMCDYCSLQKIIKETVRFSGVDKPFCSEVCKFLSA [K50S] | -0.422 ± 0.18
KLKCQHCNHLFATKPELLFYKGKMFLFCGKNCSDEYKKKNKVVAMCDYCKLQKIIKETVRFSGVDKPFCSEVCKILSA [F75I] | 0.02 ± 0.22
KLKCQHCNHLFATKPELLFYKGKMFLFCGKNCSDEYKKKNKVVAMCDYCKLVKIIKETVRFSGVDKPFCSEVCKFLSA [Q52V] | 0.173 ± 0.092
KLKCQHCNHLFATKPELLFYKGKMFLFCGKNCSDEYKKKNKVVAMCDYCKLQKIIKETVRFSGVDKPFRSEVCKFLSA [C69R] | -0.602 ± 0.097

Variant | abundance fitness
KLKCQHCNHLFATKPELLFYKGKMFLFCGKNCSDEYKKKNKVVAMCDYCKLQKIIKETVRFSGVDKPFQSEVCKFLSA [C69Q] | -0.404 ± 0.19
KLKCQHCNHLFATKPELLFYKGKMFLFCGKNCSDEYKKKNKVVAMCDHCKLQKIIKETVRFSGVDKPFCSEVCKFLSA [Y48H] | 0.537 ± 0.18
KLKCQHCNHLFATKPELLFYKGKMFLFCGKNCSDEYKKKNKVVAMCDPCKLQKIIKETVRFSGVDKPFCSEVCKFLSA [Y48P] | -0.801 ± 0.23
KLKCQHCNHLFATKPELLFYKGKMFLFCGKNCSDEYKKKNKVVAMCDYCKLQKIIKETSRFSGVDKPFCSEVCKFLSA [V59S] | -0.314 ± 0.12
KLKCQHCNHLFATKPELLFYKGKMFLFCGKNCSDEYKKKNKVVAMCDYCKLQKIEKETVRFSGVDKPFCSEVCKFLSA [I55E] | 0.197 ± 0.12
KLKCQHCNHLFATKPELLFYKGKMFLFCGKNCSDEYKKKNKVVAMCDYCKLQKIHKETVRFSGVDKPFCSEVCKFLSA [I55H] | 0.164 ± 0.15
KLKCQHCNHLFATKPELLFYKGKMFLFCGKNCSDEYKKKNKVVAECDYCKLQKIIKETVRFSGVDKPFCSEVCKFLSA [M45E] | -0.051 ± 0.13
KLKCQHCNHLFATKPELLFYKGKMFLFCGKNCSDEYKKKNKVVALCDYCKLQKIIKETVRFSGVDKPFCSEVCKFLSA [M45L] | -0.671 ± 0.18
KLKCQHCNHLFATKPELLFYKGKMFLFFGKNCSDEYKKKNKVVAMCDYCKLQKIIKETVRFSGVDKPFCSEVCKFLSA [C28F] | -0.855 ± 0.25
KLKCQHCNHLFATKPELLFYKGKMFLFHGKNCSDEYKKKNKVVAMCDYCKLQKIIKETVRFSGVDKPFCSEVCKFLSA [C28H] | -0.608 ± 0.12
KLKCQHCNHLFATKPELLFYKGKMFLFCGKNCSDEYKKKNKVVAMCDYCKLQKIIKETVRFSGVDTPFCSEVCKFLSA [K66T] | -0.199 ± 0.33
KLKCQHCNHLFATKPELLFYKGKMFQFCGKNCSDEYKKKNKVVAMCDYCKLQKIIKETVRFSGVDKPFCSEVCKFLSA [L26Q] | 0.166 ± 0.057
KLKCQHCNHLFATKPELLFYKGKMFFFCGKNCSDEYKKKNKVVAMCDYCKLQKIIKETVRFSGVDKPFCSEVCKFLSA [L26F] | -0.148 ± 0.11
KLKCQHCNHLFATKPELLFYKGKMFMFCGKNCSDEYKKKNKVVAMCDYCKLQKIIKETVRFSGVDKPFCSEVCKFLSA [L26M] | -0.015 ± 0.056
KLKCQHCNHLFATKPELLFYKGKMFRFCGKNCSDEYKKKNKVVAMCDYCKLQKIIKETVRFSGVDKPFCSEVCKFLSA [L26R] | 0.089 ± 0.029
KLKCQHCNHLFATKPELLFYKSKMFLFCGKNCSDEYKKKNKVVAMCDYCKLQKIIKETVRFSGVDKPFCSEVCKFLSA [G22S] | -0.049 ± 0.048
KLKCQHCNHLFPTKPELLFYKGKMFLFCGKNCSDEYKKKNKVVAMCDYCKLQKIIKETVRFSGVDKPFCSEVCKFLSA [A12P] | -0.131 ± 0.04
KLKCQHCNHLFATKPELLFYKGKMFLICGKNCSDEYKKKNKVVAMCDYCKLQKIIKETVRFSGVDKPFCSEVCKFLSA [F27I] | -0.365 ± 0.15
KRKCQHCNHLFATKPELLFYKGKMFLFCGKNCSDEYKKKNKVVAMCDYCKLQKIIKETVRFSGVDKPFCSEVCKFLSA [L2R] | 0.014 ± 0.028
KWKCQHCNHLFATKPELLFYKGKMFLFCGKNCSDEYKKKNKVVAMCDYCKLQKIIKETVRFSGVDKPFCSEVCKFLSA [L2W] | -0.119 ± 0.032
KLKCQHCNHLFAIKPELLFYKGKMFLFCGKNCSDEYKKKNKVVAMCDYCKLQKIIKETVRFSGVDKPFCSEVCKFLSA [T13I] | 0.031 ± 0.075
KLKCQHCNHLFAWKPELLFYKGKMFLFCGKNCSDEYKKKNKVVAMCDYCKLQKIIKETVRFSGVDKPFCSEVCKFLSA [T13W] | -0.162 ± 0.039
